16 sequences from the DeepSol protein solubility set can be followed below.

This data set is described as follows: soluble on expression in E. coli; label from the status in PepcDB or PDB records.
“MGSLDLPYASSFKGGSETFLQNVFESILKTYLRKNPMAKTIWELVKSVDNEKISYDHFFFRTFKVDGYGIDSLASFFMDYGYKVGGRLDFPKKKVQVLWLSPPDVHFPDNGYGIGNGPLPRLVIAELLVEELSPESQEIIRKYLKPEGGKQAVLSSTLGSLIWEKPTSTDFNQLAKESEFAAWTLVYGYTMNHLAFAVHRLKHRFSDIKCVKEYFEENGFELNKDGGVLKVSEDSLLLQVSAMSEKLVVEFADGVTQIVPASYIEFVERLVLPQFKDMPCDEIKEFHRREGLEQASAYHIMESTRFTA”: the “soluble on expression in E. coli” value is recorded as “soluble”.
As for “MGSLRLTERPHVRKARLWVKLSDGKEGWVRCDLCQRRCVIAPGKYGACGVRKNIGGELYTLVYGLLSASNIDPIEKKPLLHFYPGSTVLSISTVGCNFFCQFCQNFEISQSRLEKGLYGVYRTPEEVVRLALVYGADGITYTYNEPTIFFETVYDVAKEAKKHGLFNTMVTNGYMTPEAVDELGSLIDAATVDFKGGGDPEFYRKIMFVPDPEPIYEAILAMKDKGWWIEITNLVVPILGDKPEYVRRMARWIVENLGPEVPFHLLRFHPDYKLRHVPHTPVKTLEKLARIAMEEGLKHVYIGNVWGHPLEDTYCPKCGYKVVDREGFAIVEWRLTSDFRCPRCGYKLNFRGEYTPRNINYPMPVM”, the “soluble on expression in E. coli” value is recorded as “not soluble”.
The same measure for “MGSNELFTRSVYMQSSVYSNNSKSSTSSSSSNSIPTQSAPAMNAASSPSKEPAKQEKEDDKKEVEEKKEIEKSVEAKVEGKVKAKVESTQNTDNSQELKAPEEKPKKKKKKKSNLIVSASVEKLSIVPEKEDFSILEKKLREFNFYHGFLPREDLHTTLHNPGDFLLRVSEVVEGEHKVNREVILSLIPVSTVSKDEEDRKKVRNVVIKRVTNLFFCEITRTFESISDLVTYYTKNPGGCASGTFQLKHPILQQSWEFMHSDVTVGKVLGEGAFGKVCSGTLKLKDGTNVDVAIKMTKVSAFLSKMKIKEMMNEARFIRNFNHKNVVRLYGVAHHEQPLYILLELVKGGSLQDHMKKEKGAVSIVEKIKFCSGAGRGIEYLHQNNCIHRDIAARNCLLHEKEVKITDFGLSRTGPVYKMKTACKLPVKWLAPETLSTLSFSFATDTYSWGVTCYEVFADGVEPFFGIQNSVVKTDILANKFLQMPPTTPESIKKYMEASIFVEGSRRATMTSAIAEFEKIKSALERPPSDMLSVGAGAKKVMKLLKRNKQEKYSKGD”: “not soluble”.
As to “MGSQKRLVQRVERKLEQTVGDAFARIFGGSIVPQEVEALLRREAADGIQSLQGNRLLAPNEYIITLGVHDFEKLGADPELKSTGFARDLADYIQEQGWQTYGDVVVRFEQSSNLHTGQFRARGTVNPDVETHPPVIDCARPQSNHAFGAEPGVAPMSDNSSYRGGQGQGRPDEYYDDRYARPQEDPRGGPDPQGGSDPRGGYPPETGGYPPQPGYPRPRHPDQGDYPEQIGYPDQGGYPEQRGYPEQRGYPDQRGYQDQGRGYPDQGQGGYPPPYEQRPPVSPGPAAGYGAPGYDQGYRQSGGYGPSPGGGQPGYGGYGEYGRGPARHEEGSYVPSGPPGPPEQRPAYPDQGGYDQGYQQGATTYGRQDYGGGADYTRYTESPRVPGYAPQGGGYAEPAGRDYDYGQSGAPDYGQPAPGGYSGYGQGGYGSAGTSVTLQLDDGSGRTYQLREGSNIIGRGQDAQFRLPDTGVSRRHLEIRWDGQVALLADLNSTNGTTVNNAPVQEWQLADGDVIRLGHSEIIVRMH”, the “soluble on expression in E. coli” value was “soluble”.
Take “MGSSHHHHHHGKTIFVIVPTNEEQVAFLEALAKQDELNFDWQNPPTEPGQPVVILIPSDMVEWFLEMLKAKGIPFTVYVEEGGSENLYFQGGGGGGRRGFTETVSPVAGFHIFTLFLLRELIEPWSQGQVRAQAARAREAQRRSFTTDIAMQYREKLD”: the “soluble on expression in E. coli” value was “soluble”.
On to “MGSSHHHHHHMTLNQPEYFTKYENLHFHRDENGILEVRMHTNGSSLVFTGKTHREFPDAFYDISRDRDNRVVILTGSGDAWMAEIDFPSLGDVTNPREWDKTYWEGKKVLQNLLDIEVPVISAVNGAALLHSEYILTTDIILASENTVFQDMPHLNAGIVPGDGVHILWPLALGLYRGRYFLFTQEKLTAQQAYELNVVHEVLPQSKLMERAWEIARTLAKQPTLNLRYTRVALTQRLKRLVNEGIGYGLALEGITATDLRNN”, for which the “soluble on expression in E. coli” value is “soluble”.
Regarding “MGSSHHHHHHSSGLEVLFQGPHMETAIWIKNSKLPAVLVAAGAFDAAVQALSKQVGVVKLEPLKKYFTNIYEGCRTYIPSTPCELPAQLGYVRAYDDTVSEDQILPYVPGLDVVNEKMNEGYKNFKLNKPDIAIECFREAIYRITLLMVDDAEDEKLAHKILETAREYILGLSIELERRSLKEGNTVRMLELAAYFTKAKLSPIHRTNALQVAMSQHFKHKNFLQASYFAGEFLKIISSGPRAEQARKIKNKADSMASDAIPIDFDPYAKFDICAATYKPIYEDTPSVSDPLTGSKYVITEKDKIDRIAMISKIGAPASGLRIRV”, the “soluble on expression in E. coli” value is “soluble”.
On to “MGSSHHHHHHSSGLVPRGSHMKRSSPVILVSEDEYGKFDESTNSILVKGKMHHLGISRVIEPGDELIVSGKSFIVSDFSPMYFGRVIRRNTQIISEIDASYIIMRCGLRPGMDILEVGVGSGNMSSYILYALNGKGTLTVVERDEDNLKKAMDNLSEFYDIGNVRTSRSDIADFISDQMYDAVIADIPDPWNHVQKIASMMKPGSVATFYLPNFDQSEKTVLSLSASGMHHLETVELMKRRILVREGATRPASDDLTHTAFITFAIKKSGMVYRI”, for which the “soluble on expression in E. coli” value is “soluble”.
In the case of “MGSSHHHHHHSSGLVPRGSHMSVRSLPAALRACARLQPHDPAFTFMDYEQDWDGVAITLTWSQLYRRTLNVAQELSRCGSTGDRVVISAPQGLEYVVAFLGALQAGRIAVPLSVPQGGVTDERSDSVLSDSSPVAILTTSSAVDDVVQHVARRPGESPPSIIEVDLLDLDAPNGYTFKEDEYPSTAYLQYTSGSTRTPAGVVMSHQNVRVNFEQLMSGYFADTDGIPPPNSALVSWLPFYHDMGLVIGICAPILGGYPAVLTSPVSFLQRPARWMHLMASDFHAFSAAPNFAFELAARRTTDDDMAGRDLGNILTILSGSERVQAATIKRFADRFARFNLQERVIRPSYGLAEATVYVATSKPGQPPETVDFDTESLSAGHAKPCAGGGATSLISYMLPRSPIVRIVDSDTCIECPDGTVGEIWVHGDNVANGYWQKPDESERTFGGKIVTPSPGTPEGPWLRTGDSGFVTDGKMFIIGR”, the “soluble on expression in E. coli” value is on record as “soluble”.
Consider “MGSSHHHHHHSSGLVPRGSQSTSLYKKAGLMISAGDFKNGVTFELDGQIFQVIEFQHVKPGKGAAFVRTKLKNIVTGATIEKTFNPTDKMPKAHIERKDMQYLYNDGDLYYFMDTETFEQLPLGKDKIGDALKFVKENEIVKVLSHKGNVFGIEPPNFVELEVTDTEPGFKGDTATGATKPAIVETGASIKVPLFVNKGDIIRIDTRTGEYMERV”, for which the “soluble on expression in E. coli” value is listed as “soluble”.
With “MGSSHHHHHHSSGRENLYFQGHMASQLTDAFARKFYYLRLSITDVCNFRCTYCLPDGYKPSGVTNKGFLTVDEIRRVTRAFARLGTEKVRLTGGEPSLRRDFTDIIAAVRENDAIRQIAVTTNGYRLERDVASWRDAGLTGINVSVDSLDARQFHAITGQDKFNQVMAGIDAAFEAGFEKVKVNTVLMRDVNHHQLDTFLNWIQHRPIQLRFIELMETGEGSELFRKHHISGQVLRDELLRRGWIHQLRQRSDGPAQVFCHPDYAGEIGLIMPYEKDFCATCNRLRVSSIGKLHLCLFGEGGVNLRDLLEDDTQQQALEARISAALREKKQTHFLHQNNTGITQNLSYIGG”, the “soluble on expression in E. coli” value is given as “soluble”.
“MGSSHHHHHHSSGRENLYFQGHMHALSPLALAALIVATAPAFADEAKKPGTVFKDCKDCPEMVVLPAGSFTMGTPDDEVGRQPDEGPLHDVTFAKPFAISRYQVTAGELDAYLKATGVKLADGDTRPGRECIAGKPRYQQGPRQPAVCVDYNDVKNYAAWLSKKTGKRYRMLSEAEREYGARAGSAGPFPFPFDEGKEYSIAKHANTYGASDGYNFTSPVGSFPPNAFGVYDMHGNVYEWVADCWHDHYNGAPSDGSAWMEEKCELVQIRGNDWGEPPIFSRSGNRNNAAPSDRGDWIGFRVAREL”: the “soluble on expression in E. coli” value was “soluble”.
For “MGSSHHHHHHSSGRENLYFQGHMKPDAHQVKQFLLNLQDTICQQLTAVDGAEFVEDSWQREAGGGGRSRVLRNGGVFEQAGVNFSHVHGEAMPASATAHRPELAGRSFEAMGVSLVVHPHNPYVPTSHANVRFFIAEKPGADPVWWFGGGFDLTPFYGFEEDAIHWHRTARDLCLPFGEDVYPRYKKWCDEYFYLKHRNEQRGIGGLFFDDLNTPDFDRCFAFMQAVGKGYTDAYLPIVERRKAMAYGERERNFQLYRRGRYVEFNLVWDRGTLFGLQTGGRTESILMSMPPLVRWEYDYQPKDGSPEAALSEFIKVRDWV”, the “soluble on expression in E. coli” value is reported as “soluble”.
With “MGSSHHHHHHSSGRENLYFQGHMNPNFLDFEQPIADLQAKIEELRLVGNDNALNISDEISRLQDKSKALTENIFGNLSSWQIAQLARHPKRPYTLDYIGYLFSDFEELHGDRHFADDPAIVGGVARLDGSPVMVIGHQKGREVREKVRRNFGMPRPEGYRKACRLMEMAERFKMPILTFIDTPGAYPGIDAEERGQSEAIAWNLRVMARLKTPIIATVIGEGGSGGALAIGVCDQLNMLQYSTYSVISPEGCASILWKTAEKAPEAAEAMGITAERLKGLGIVDKVIDEPLGGAHRDPASMAESIRGELLAQLKMLQGLEMGELLERRYDRLMSYGAP”, the “soluble on expression in E. coli” value is given as “soluble”.
The same measure for “MGSSHHHHHHSSGRENLYFQGHMNRTLYTLLFHLGLPLVALRLWWRARQAPAYAKRIGERFSLSLPEVPPGGIWVHAVSVGESIAAAPMVRALLERHPQLPVTVTCMTPTGSERIRALFGEQVRHCYLPYDLPWAAARFLDRVRPRLAVIMETELWPNHIHACAVRGIPVALANARLSERSARGYARFAGLTRPMLAELSWIAVQTEAEAERFRRLGARPECVSVTGSIKFDLRIDPQLPLAAAALREEWDATARPLWIAASTHAGEDEIVLAAHRRLLETRPDALLILVPRHPERFAGVHELCRREGFATVRRSGGEPVARATQVLLGDTMGELLFLYALADIAFVGGSLVPNGGHNLLEPAALGKPVFAGPHLFNFLDIAAQLRDAGALLEVTDAGELCDGLARLWAQPEVATAMATAGEKVLRNNQGALERLLAGLARLLGRGG”: “soluble”.
The same measure for “MGSTSSLYAAIDLGSNSFHMLVVREVAGSIQTLTRIKRKVRLAAGLNSENALSNEAMERGWQCLRLFAERLQDIPPSQIRVVATATLRLAVNAGDFIAKAQEILGCPVQVISGEEEARLIYQGVAHTTGGADQRLVVDIGGASTELVTGTGAQTTSLFSLSMGCVTWLERYFADRNLGQENFDAAEKAAREVLRPVADELRYHGWKVCVGASGTVQALQEIMMAQGMDERITLEKLQQLKQRAIHCGRLEELEIDGLTLERALVFPSGLAILIAIFTELNIQCMTLAGGALREGLVYGMLHLAVEQDIRSRTLRNIQRRFMIDIDQAQRVAKVAANFFDQVENEWHLEAISRDLLISACQLHEIGLSVDFKQAPQHAAYLVRNLDLPGFTPAQKKLLATLLLNQTNPVDLSSLHQQNAVPPRVAEQLCRLLRLAIIFASRRRDDLVPEMTLQANHELLTLTLPQGWLTQHPLGKEIIAQESQWQSYVHWPLEVH”: “soluble”.
